T1: CD59 (immobilized for SPR), P13987
T1 chain: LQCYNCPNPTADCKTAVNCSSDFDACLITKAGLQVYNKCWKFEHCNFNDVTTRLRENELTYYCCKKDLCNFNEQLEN


Biological target: T1, CD59 (immobilized for SPR), P13987
Assay: SPR
Conditions: chain shown with the change; n = 1
In the case of YSWTWGARSSVRGC [CP-06 N7A], the ratio to parent is reported as 19. For YSWTAGNRSSVRGC [CP-06 W5A], the ratio to parent was 19. Binder YSWTWANRSSVRGC [CP-06 G6A] has a ratio to parent of 21.

Same assay, conditions: chain shown with the change; n = 1; parent: est. 8.0; read off a plot
Binder YSWAWGNRSSVRGC [CP-06 T4A] has an other: pKD (-Log10(KD)) of 7.8. YSWTWGNRSAVRGC [CP-06 S10A] was tested, and the other: pKD (-Log10(KD)) was 8. YSWTWGNRSSARGC [CP-06 V11A] showed an other: pKD (-Log10(KD)) of 7.6. YSWTWGNRASVRGC [CP-06 S9A] was tested, and the other: pKD (-Log10(KD)) was 7.7. YSWTWGNASSVRGC [CP-06 R8A] showed an other: pKD (-Log10(KD)) of 7.8. Work on YSWTWGNRSSVAGC [CP-06 R12A] yielded an other: pKD (-Log10(KD)) of 7.1. In the case of YAWTWGNRSSVRGC [CP-06 S2A], the other: pKD (-Log10(KD)) is reported as 7.9. Binder YSWTWGARSSVRGC [CP-06 N7A] has an other: pKD (-Log10(KD)) of 6.7. YSWTAGNRSSVRGC [CP-06 W5A] gave an other: pKD (-Log10(KD)) of 6.7. In the case of YSWTWANRSSVRGC [CP-06 G6A], the other: pKD (-Log10(KD)) is reported as 6.7.

Reference: PMC12207370, “Macrocyclic Peptide Probes for Immunomodulatory Protein CD59: Potent Modulators of Bacterial Toxin Activity and Antibody‐Dependent Cytotoxicity” (Angewandte Chemie (International Ed. in English), 2025)
